Here are results for 28 molecules from patent US20220332795A1.

Sequences and labels used below:
B1: SEQ ID NO 216 (designed binder, not shown: small tags and cut ends)
chain: MLPAPKNLVVSRVTEDSARLSWTAPDAAFDSFYIAYAEPRPDGEAISLSVPGSERSYDLTGLKPGTEYSVLIHGVKGGLLSSPPKFTT
B2: SEQ ID NO 260 (designed binder, not shown: small tags and cut ends)
chain: MLPAPKNLVVSRVTEDSARLSWTAPDAAFDSFYIAYAEPRPDGEAIHLRVPGSERSYDLTGLKPGTEYNVTIQGVKGGFPSMPLSAIFTT
B3: SEQ ID NO 206 (designed binder, not shown: small tags and cut ends)
chain: MLPAPKNLVVSRVTEDSARLSWTAPDAAFDSFYIAYAEPRPDGEAIGLDVPGSERSYDLTGLKPGTEYSVLIHGVKGGLLSSPLSAIFTT
B4: SEQ ID NO 269 (designed binder, not shown: small tags and cut ends)
chain: MLPAPKNLVVSRVTEDSARLSWTAPDAAFDSFYIAYAEPRPDGEAIWLDVPGSERSYDLTGLKPGTEYSVLIHGVKGGLLSSPLDAYFTT
B5: SEQ ID NO 215 (designed binder, not shown: small tags and cut ends)
chain: MLPAPKNLVVSRVTEDSARLSWTAPDAAFDSFYIAYAEPRPDGEAIVLWVPGSERSYDLTGLKPGTEYSVLIHGVKGGLLSSPLIAEFTT
B6: SEQ ID NO 263 (designed binder, not shown: small tags and cut ends)
chain: MLPAPKNLVVSRVTEDSARLSWTAPDAAFDSFYIAYAEPRPDGEAIALVVPGSERSYDLTGLKPGTEYSVLIHGVKGGLLSSPLAANFTT
B7: SEQ ID NO 207 (designed binder, not shown: small tags and cut ends)
chain: MLPAPKNLVVSRVTEDSARLSWTAPDAAFDSFYIAYAEPRPDGEAIHLSVPGSERSYDLTGLKPGTEYSVLIHGVKGGLLSSPLAAYFTT
B8: SEQ ID NO 210 (designed binder, not shown: small tags and cut ends)
chain: MLPAPKNLVVSRVTEDSARLSWTAPDAAFDSFFIGYLEPQPPGEAINLQVPGSERSYDLTGLKPGTEYNVTIQGVKGGFPSFPLSAVFTT
B9: SEQ ID NO 218 (designed binder, not shown: small tags and cut ends)
chain: MLPAPKNLVVSRVTEDSARLSWTAPDAAFDSFYIAYAEPRPDGEAIHLVVPGSERSYDLTGLKPGTEYSVLIHGVKGGLLSSPLSAIFTT
B10: SEQ ID NO 203 (designed binder, not shown: small tags and cut ends)
chain: MLPAPKNLVVSRVTEDSARLSWTAPDAAFDSFFIGYLEPQPPGEAIVLLVPGSERSYDLTGLKPGTEYNVTIQGVKGGFPSVPLAAFFTT
B11: SEQ ID NO 209 (designed binder, not shown: small tags and cut ends)
chain: MLPAPKNLVVSRVTEDSARLSWTAPDAAFDSFYIAYAEPRPDGEAILLQVPGSCRSYDLTGLKPGTEYSVLIHGVKGGLLSSPLTAIFTT
B12: SEQ ID NO 267 (designed binder, not shown: small tags and cut ends)
chain: MLPAPKNLVVSRVTEDSARLSWTAPDAAFDSFYIAYAEPRPDGEAIGLWVPGSERSYDLTGLKPGTEYSVLIHGVKGGLLSSPLVAYFTT
B13: SEQ ID NO 265 (designed binder, not shown: small tags and cut ends)
chain: MLPAPKNLVVSRVTEDSARLSWTAPDAAFDSFYIAYAEPRPDGEAIVLEVPGSERSYDLTGLKPGTEYSVLIHGVKGGLLSSPLTASFTT
B14: SEQ ID NO 214 (designed binder, not shown: small tags and cut ends)
chain: MLPAPKNLVVSRVTEDSARLSWTAPDAAFDSFYIAYAEPRPDGEAIGLQVPGSERSYDLTGLKPGTEYSVLIHGVKGGLLSSPLCAEFTT
B15: SEQ ID NO 212 (designed binder, not shown: small tags and cut ends)
chain: MLPAPKNLVVSRVTEDSARLSWTAPDAAFDSFYIAYAEPRPDGEAIWLAVPGSERSYDLTGLKPGTEYSVLIHGVKGGLLSSPLHAQFTT
B16: SEQ ID NO 211 (designed binder, not shown: small tags and cut ends)
chain: MLPAPKNLVVSRVTEDSARLSWTAPDAAFDSFYIAYAEPRPDGEAIQLHVPGSERSYDLTGLKPGTEYSVLIHGVKGGLLSSPLVAIFTT
B17: SEQ ID NO 262 (designed binder, not shown: small tags and cut ends)
chain: MLPAPKNLVVSRVTEDSARLSWTAPDAAFDSFYIAYAEPRPDGEAIVLHVPGSERSYDLTGLKPGTEYSVLIHGVKGGLLSSPLQAIFTT
B18: SEQ ID NO 219 (designed binder, not shown: small tags and cut ends)
chain: MLPAPKNLVVSRVTEDSARLSWTAPDAAFDSFYIAYAEPRPDGEAISLKVPGSERSYDLTGLKPGTEYSVLIHGVKGGLLSSPLEAIFTT
B19: SEQ ID NO 208 (designed binder, not shown: small tags and cut ends)
chain: MLPAPKNLVVSRVTEDSARLSWTAPDAAFDSFFIGYLEPQPPGEAIVLAVPGSERSYDLTGLKPGTEYNVTIQGVKGGFPSYPLVAAFTT
B20: SEQ ID NO 261 (designed binder, not shown: small tags and cut ends)
chain: MLPAPKNLVVSRVTEDSARLSWTAPDAAFDSFYIAYAEPRPDGEAILLQVPGSERSYDLTGLKPGTEYSVLIHGVKGGLLSSPLIAKFTT
B21: SEQ ID NO 266 (designed binder, not shown: small tags and cut ends)
chain: MLPAPKNLVVSRVTEDSARLSWTAPDAAFDSFYIAYAEPRPDGEAIRLQVPGSERSYDLTGLKPGTEYSVLIHGVKGGLLSSPLGASFTT
B22: SEQ ID NO 217 (designed binder, not shown: small tags and cut ends)
chain: MLPAPKNLVVSRVTEDSARLSWTAPDAAFDSFYIAYAEPRPDGEAIILEVPGSERSYDLTGLKPGTEYSVLIHGVKGGLLSSPLRAVFTT
B23: SEQ ID NO 264 (designed binder, not shown: small tags and cut ends)
chain: MLPAPKNLVVSRVTEDSARLSWTAPDAAFDSFYIAYAEPRPDGEAINLSVPGSERSYDLTGLKPGTEYSVLIHGVKGGLLSSPLDAYFTT
B24: SEQ ID NO 268 (designed binder, not shown: small tags and cut ends)
chain: MLPAPKNLVVSRVTEDSARLSWTAPDAAFDSFYIAYAEPRPDGEAIYLEVPGSERSYDLTGLKPGTEYSVLIHGVKGGLLSSPLFTT
B25: SEQ ID NO 213 (designed binder, not shown: small tags and cut ends)
chain: MLPAPKNLVVSRVTEDSARLSWTAPDAAFDSFYIAYAEPRPDGEAILLGVPGSERSYDLTGLKPGTEYSVLIHGVKGGLLSSPLFTT
B26: SEQ ID NO 204 (designed binder, not shown: small tags and cut ends)
chain: MLPAPKNLVVSRVTEDSARLSWTAPDAAFDSFFIGYLEPQPPGEAILLWVPGSERSYDLTGLKPGTEYNVTIQGVKGGFPSQFTT
B27: SEQ ID NO 205 (designed binder, not shown: small tags and cut ends)
chain: MLPAPKNLVVSRVTEDSARLSWTAPDAAFDSFFIGYLEPQPPGEAILLGVPGSERSYDLTGLKPGTEYNVTIQGVKGGFPSMPLHPLVALFTT
B28: SEQ ID NO 270 (designed binder, not shown: small tags and cut ends)
chain: MLPAPKNLVVSRVTEDSARLSWTAPDAAFDSFAIEYCETKMCGEAIVLTVPGSERSYDLTGLKPGTEYRVPIPGVKGGTASLPLSAIFTT

In this test the target is human serum albumin (human) (UniProt P02768). The test is described as follows: solution ELISA screen (luminescence). (In general: An ELISA detects its analyte on a solid surface through an enzyme-linked reagent.)
Sequence of human serum albumin (human) (P02768 25-609 limits assumed): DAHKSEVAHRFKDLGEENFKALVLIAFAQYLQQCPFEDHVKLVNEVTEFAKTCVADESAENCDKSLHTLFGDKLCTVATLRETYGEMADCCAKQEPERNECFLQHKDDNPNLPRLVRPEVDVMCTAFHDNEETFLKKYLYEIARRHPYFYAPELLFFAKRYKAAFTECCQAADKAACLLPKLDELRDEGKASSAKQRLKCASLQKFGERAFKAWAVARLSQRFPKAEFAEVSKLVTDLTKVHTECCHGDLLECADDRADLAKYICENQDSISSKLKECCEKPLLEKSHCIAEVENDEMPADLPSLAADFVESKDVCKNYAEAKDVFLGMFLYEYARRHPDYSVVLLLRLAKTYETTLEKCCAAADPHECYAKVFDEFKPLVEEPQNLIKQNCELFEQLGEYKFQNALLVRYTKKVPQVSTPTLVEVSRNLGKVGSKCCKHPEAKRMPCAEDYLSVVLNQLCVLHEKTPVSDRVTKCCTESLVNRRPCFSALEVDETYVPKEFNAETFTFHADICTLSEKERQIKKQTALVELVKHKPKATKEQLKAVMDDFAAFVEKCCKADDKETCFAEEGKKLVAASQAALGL
In turn, B1 returned an RLU of 192000 RLU.

On to B2, for which the RLU came out at 33400 RLU.

As for B3, the RLU stood at 14000 RLU.

Turning to B4, the RLU came out at 19900 RLU.

B5 had an RLU of 22400 RLU.

Take B6: the RLU worked out at 23800 RLU.

In turn, B7 returned an RLU of 121000 RLU.

On to B8, for which the RLU worked out at 48600 RLU.

In turn, B9 gave an RLU of 14100 RLU.

B10 showed an RLU of 26000 RLU.

Consider B11, for which the RLU is 17800 RLU.

Consider B12, for which the RLU amounted to 29800 RLU.

Take B13: the RLU is 30700 RLU.

For B14, the RLU was 30200 RLU.

In turn, B15 gave an RLU of 17400 RLU.

As for B16, the RLU turned out to be 13000 RLU.

B17 yielded an RLU of 30900 RLU.

B18: the RLU amounted to 11800 RLU.

B19 came in with an RLU of 16400 RLU.

B20: the RLU was determined as 174000 RLU.

As to B21, the RLU is 36200 RLU.

For the molecule B22, the RLU stood at 16200 RLU.

Consider B23, for which the RLU stood at 24400 RLU.

B24 registered an RLU of 117000 RLU.

The molecule B25 had an RLU of 70300 RLU.

B26 displayed an RLU of 20000 RLU.

B27 gave an RLU of 155000 RLU.

For B28, the RLU was 64400 RLU.
